Measurements reported in US20220204643A1 (published 2022).

Key:
Assay in all cases: protein array
[1] = target: T1, calcium and integrin binding 1, transcript variant b (human, UniProt Q99828 2-191)
T1 construct: on protein array; also called CIB1
T1 sequence: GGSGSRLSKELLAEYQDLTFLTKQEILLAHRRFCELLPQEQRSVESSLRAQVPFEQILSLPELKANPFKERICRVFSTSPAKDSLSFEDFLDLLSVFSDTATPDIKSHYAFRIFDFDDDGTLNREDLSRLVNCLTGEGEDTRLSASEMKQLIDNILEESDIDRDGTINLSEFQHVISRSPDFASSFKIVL

[2] = target: T2, neural retina leucine zipper, transcript variant X4 (human, UniProt P54845 1-237)
T2 construct: on protein array; also called NRL

[3] = target: T3, killer cell lectin like receptor Cl, transcript variant 3 (human, UniProt P26715 1-233)
T3 construct: on protein array; also called KLRC1

[4] = target: T4, C-X-C motif chemokine receptor 4, transcript variant 2 (human, UniProt P61073 1-352)
T4 construct: on protein array; also called CXCR4

[5] = target: T5, Long intergenic non-protein coding rna 242 (human, UniProt Q5T6M2 1-205)
T5 construct: on protein array; also called LINC00242
T5 chain: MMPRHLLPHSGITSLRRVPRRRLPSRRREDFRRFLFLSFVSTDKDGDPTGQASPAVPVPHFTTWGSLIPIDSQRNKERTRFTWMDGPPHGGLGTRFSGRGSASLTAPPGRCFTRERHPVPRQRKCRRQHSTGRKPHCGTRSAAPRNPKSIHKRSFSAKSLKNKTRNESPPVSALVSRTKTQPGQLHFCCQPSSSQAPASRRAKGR

[6] = target: T6, actinin alpha 1, transcript variant 2 (human, UniProt P12814 1-892)
T6 construct: on protein array; also called ACTN1

[7] = target: T7, dual specificity phosphatase 12 (human, UniProt Q9UNI6 1-340)
T7 construct: on protein array; also called DUSP12

[8] = target: T8, HAUS augmin like complex subunit 1, transcript variant 1 (human, UniProt Q96CS2 1-278)
T8 construct: on protein array; also called HAUS1
T8 sequence: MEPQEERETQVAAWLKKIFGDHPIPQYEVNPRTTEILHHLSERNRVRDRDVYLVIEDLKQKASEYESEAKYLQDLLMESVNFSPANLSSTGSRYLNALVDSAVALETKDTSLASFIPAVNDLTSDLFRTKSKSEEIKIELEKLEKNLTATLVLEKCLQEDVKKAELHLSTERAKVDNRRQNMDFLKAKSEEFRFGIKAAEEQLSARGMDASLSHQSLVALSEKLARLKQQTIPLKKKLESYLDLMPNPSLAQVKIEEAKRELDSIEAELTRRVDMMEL

[9] = target: T9, Kirre like nephrin family adhesion molecule 1 (human, UniProt Q96J84 17-757)
T9 construct: on protein array
T9 sequence: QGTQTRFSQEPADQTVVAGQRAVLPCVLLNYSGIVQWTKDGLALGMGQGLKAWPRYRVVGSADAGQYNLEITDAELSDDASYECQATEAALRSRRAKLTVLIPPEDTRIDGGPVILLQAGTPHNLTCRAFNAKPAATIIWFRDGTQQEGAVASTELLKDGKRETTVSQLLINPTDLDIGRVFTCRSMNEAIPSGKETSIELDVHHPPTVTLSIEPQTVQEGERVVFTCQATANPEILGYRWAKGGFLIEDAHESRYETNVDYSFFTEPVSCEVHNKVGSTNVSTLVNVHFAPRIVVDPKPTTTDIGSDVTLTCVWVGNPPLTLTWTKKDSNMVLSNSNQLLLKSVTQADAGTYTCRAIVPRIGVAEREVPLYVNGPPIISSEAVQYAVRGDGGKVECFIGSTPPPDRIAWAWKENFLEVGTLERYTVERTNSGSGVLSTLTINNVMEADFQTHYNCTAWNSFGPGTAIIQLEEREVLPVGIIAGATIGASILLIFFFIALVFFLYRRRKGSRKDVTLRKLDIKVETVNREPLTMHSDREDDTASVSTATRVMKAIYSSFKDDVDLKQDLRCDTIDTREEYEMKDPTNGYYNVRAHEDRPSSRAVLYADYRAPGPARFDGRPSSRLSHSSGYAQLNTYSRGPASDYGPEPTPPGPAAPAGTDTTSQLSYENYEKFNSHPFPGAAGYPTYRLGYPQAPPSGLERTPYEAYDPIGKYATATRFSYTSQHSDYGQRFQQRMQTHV

[10] = target: T10, GRB10 interacting GYF protein 1, transcript variant X10 (human, UniProt O75420 1-1035)
T10 construct: on protein array; also called GIGYF1
T10 sequence: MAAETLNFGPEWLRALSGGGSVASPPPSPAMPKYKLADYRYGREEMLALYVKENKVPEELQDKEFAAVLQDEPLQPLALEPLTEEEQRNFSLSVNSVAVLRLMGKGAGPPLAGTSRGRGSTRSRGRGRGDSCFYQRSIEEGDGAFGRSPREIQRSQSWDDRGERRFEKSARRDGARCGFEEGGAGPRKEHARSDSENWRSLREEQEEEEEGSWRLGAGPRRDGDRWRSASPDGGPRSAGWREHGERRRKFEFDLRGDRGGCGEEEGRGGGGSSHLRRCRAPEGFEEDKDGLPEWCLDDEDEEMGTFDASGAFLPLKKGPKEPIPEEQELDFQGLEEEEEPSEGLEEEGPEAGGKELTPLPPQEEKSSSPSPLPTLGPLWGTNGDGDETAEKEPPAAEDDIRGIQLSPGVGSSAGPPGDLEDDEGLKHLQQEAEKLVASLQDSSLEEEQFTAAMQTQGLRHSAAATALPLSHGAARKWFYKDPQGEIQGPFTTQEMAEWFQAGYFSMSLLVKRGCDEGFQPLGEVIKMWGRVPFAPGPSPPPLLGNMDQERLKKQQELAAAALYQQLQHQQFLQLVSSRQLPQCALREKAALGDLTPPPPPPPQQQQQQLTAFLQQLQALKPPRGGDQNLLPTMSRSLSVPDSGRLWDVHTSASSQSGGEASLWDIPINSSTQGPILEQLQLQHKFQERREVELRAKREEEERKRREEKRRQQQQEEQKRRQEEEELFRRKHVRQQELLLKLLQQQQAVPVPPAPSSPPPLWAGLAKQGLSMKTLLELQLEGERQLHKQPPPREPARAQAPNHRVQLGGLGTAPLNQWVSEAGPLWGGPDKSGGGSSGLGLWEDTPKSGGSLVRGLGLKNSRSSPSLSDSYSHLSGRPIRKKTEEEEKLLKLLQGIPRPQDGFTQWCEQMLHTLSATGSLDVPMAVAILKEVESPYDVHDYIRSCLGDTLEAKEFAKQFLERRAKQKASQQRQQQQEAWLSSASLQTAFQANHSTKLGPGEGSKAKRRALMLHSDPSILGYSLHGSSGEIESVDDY

[11] = target: T11, Ankyrin repeat domain 20 family member a5, pseudogene (human, UniProt A0PJZ0 1-165)
T11 construct: on protein array; also called ANKRD20A5P

[12] = target: T12, coiled-coil domain containing 74B, transcript variant 2 (human, UniProt Q96LY2 1-380)
T12 construct: on protein array; also called CCDC74B

[13] = target: T13, HSPA (Hsp70) binding protein 1, transcript variant 2 (human, UniProt Q9NZL4 1-359)
T13 construct: on protein array; also called HSPBP1
T13 sequence: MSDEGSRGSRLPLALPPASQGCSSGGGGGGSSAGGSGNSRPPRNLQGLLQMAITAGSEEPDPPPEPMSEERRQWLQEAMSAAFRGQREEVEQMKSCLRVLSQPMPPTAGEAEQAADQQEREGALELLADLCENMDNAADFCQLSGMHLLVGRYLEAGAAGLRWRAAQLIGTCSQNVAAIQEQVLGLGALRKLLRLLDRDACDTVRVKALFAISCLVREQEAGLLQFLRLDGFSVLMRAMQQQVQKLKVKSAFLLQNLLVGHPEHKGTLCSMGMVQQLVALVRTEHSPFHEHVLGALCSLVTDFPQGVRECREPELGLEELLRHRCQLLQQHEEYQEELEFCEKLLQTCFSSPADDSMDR

[14] = target: T14, heat shock protein family A (Hsp70) member 2 (human, UniProt P54652 1-639)
T14 construct: on protein array; also called HSPA2

[15] = target: T15, BCL2 associated athanogene 2 (human, UniProt O95816 2-211)
T15 construct: on protein array; also called BAG2
T15 sequence (O95816 2-211 limits assumed): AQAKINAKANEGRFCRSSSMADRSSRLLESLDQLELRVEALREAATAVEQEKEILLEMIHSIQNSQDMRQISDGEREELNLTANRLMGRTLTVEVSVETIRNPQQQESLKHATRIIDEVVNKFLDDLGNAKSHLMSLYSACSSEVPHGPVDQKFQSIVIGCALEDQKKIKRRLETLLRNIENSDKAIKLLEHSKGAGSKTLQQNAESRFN

T7 sequence (Q9UNI6 whole entry): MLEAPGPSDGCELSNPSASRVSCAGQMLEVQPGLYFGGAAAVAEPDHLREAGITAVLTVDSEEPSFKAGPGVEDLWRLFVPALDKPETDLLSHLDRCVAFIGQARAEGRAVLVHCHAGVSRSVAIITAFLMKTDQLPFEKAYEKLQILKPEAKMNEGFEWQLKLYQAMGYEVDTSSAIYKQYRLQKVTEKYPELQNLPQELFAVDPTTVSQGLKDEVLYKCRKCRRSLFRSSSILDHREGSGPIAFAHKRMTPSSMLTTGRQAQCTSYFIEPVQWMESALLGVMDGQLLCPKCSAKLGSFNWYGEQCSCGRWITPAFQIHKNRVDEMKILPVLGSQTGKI
T11 sequence (A0PJZ0 whole entry, the tested form may be a part): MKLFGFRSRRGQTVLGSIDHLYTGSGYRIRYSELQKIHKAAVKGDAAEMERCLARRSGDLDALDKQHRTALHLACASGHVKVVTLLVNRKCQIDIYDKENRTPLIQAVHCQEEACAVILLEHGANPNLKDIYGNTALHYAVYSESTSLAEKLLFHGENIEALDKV
T3 sequence (P26715 other isoform, or with tags, fused parts or gaps mutant limits assumed): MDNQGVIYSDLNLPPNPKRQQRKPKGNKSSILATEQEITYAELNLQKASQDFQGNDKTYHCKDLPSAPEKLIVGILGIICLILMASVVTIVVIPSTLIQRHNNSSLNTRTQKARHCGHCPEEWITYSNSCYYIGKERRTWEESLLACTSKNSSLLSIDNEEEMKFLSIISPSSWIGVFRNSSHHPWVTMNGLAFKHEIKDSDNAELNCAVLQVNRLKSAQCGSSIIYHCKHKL
T6 sequence (P12814 whole entry, change not shown): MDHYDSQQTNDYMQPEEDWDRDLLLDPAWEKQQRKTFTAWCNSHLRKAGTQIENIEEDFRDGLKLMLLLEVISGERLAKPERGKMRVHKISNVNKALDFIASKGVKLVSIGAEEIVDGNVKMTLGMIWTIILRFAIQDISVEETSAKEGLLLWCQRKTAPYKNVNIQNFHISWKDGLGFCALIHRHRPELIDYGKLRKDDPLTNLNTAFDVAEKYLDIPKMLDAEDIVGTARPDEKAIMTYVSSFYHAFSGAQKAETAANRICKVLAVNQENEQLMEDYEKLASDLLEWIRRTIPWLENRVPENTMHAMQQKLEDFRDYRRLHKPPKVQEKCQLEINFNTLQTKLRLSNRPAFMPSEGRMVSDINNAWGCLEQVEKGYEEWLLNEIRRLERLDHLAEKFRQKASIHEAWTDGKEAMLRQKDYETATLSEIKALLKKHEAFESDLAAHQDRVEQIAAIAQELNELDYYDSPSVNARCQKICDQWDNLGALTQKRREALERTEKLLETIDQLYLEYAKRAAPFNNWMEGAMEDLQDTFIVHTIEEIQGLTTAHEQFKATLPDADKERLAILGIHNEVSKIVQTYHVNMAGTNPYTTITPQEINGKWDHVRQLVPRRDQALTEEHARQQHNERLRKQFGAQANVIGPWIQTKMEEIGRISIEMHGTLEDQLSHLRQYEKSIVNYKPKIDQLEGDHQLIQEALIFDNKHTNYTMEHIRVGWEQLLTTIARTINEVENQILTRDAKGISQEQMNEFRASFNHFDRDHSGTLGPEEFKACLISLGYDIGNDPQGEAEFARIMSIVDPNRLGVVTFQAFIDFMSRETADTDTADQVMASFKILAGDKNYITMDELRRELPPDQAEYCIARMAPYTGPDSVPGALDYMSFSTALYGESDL
T2 sequence (P54845 whole entry, change not shown): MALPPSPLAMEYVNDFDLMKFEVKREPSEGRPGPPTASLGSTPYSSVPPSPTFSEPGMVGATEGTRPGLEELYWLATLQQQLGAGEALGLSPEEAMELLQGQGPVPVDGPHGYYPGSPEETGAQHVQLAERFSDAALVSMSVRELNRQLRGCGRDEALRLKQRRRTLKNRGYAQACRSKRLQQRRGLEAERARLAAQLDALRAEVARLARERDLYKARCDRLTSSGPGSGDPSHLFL
T12 sequence (Q96LY2 other isoform, or with tags, fused parts or gaps mutant limits assumed): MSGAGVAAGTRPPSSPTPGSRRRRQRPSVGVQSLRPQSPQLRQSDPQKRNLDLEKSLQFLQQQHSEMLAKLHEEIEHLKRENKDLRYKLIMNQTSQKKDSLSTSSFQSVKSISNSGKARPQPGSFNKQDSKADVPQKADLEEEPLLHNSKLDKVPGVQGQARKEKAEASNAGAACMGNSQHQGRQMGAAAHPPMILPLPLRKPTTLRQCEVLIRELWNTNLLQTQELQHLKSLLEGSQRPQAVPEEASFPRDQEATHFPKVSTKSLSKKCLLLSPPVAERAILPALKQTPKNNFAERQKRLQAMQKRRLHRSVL
T4 sequence (P61073 whole entry, change not shown): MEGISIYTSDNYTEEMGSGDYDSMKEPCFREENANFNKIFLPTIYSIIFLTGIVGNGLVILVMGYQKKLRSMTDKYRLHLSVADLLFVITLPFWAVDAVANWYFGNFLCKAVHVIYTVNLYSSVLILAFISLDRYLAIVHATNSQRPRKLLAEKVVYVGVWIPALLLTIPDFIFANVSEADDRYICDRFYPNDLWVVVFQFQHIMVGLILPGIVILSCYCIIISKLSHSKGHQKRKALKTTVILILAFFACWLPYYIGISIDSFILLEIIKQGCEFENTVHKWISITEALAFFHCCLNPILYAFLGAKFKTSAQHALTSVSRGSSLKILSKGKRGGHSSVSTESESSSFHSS
T14 sequence (P54652 whole entry): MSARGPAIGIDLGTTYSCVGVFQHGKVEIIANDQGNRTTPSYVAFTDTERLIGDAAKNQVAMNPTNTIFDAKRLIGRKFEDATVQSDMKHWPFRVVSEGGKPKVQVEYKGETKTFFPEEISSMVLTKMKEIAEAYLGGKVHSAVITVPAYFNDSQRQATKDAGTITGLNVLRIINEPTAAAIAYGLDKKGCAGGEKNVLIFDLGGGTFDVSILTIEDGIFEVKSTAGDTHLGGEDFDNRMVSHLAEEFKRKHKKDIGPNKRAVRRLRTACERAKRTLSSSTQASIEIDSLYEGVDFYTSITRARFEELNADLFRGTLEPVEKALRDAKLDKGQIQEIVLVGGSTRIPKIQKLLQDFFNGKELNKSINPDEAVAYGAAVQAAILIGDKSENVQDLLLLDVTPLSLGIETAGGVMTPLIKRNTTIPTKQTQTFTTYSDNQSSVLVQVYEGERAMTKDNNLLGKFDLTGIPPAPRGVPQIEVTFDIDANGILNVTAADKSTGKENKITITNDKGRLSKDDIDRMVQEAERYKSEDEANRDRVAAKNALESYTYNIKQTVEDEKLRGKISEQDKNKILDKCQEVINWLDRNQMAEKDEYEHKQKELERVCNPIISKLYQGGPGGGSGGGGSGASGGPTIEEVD

B1: TSTO1001 (antibody, V domains shown)
VH: VVQLLESGGGLVHPGGSLRISCAASEFTFSAYAMTWVRQAPGKGLEWVSAISGSGGRTYYADSLKGRFTISRDNSKHTLYLLMNSLRVEDTAVYYCASRYRSPSGAFDIWGQGTLVTVSS
VL: EIVMTQSPATLSVSQGERATLSCRASQSVGSDLAWYQQKPGQAPRLLIYDASARATDIPARFSGSGSETEFTLTISSLQSEDFAVYYCQHYSDWRALTFGGGTKVEIKR
notes: VH/VL tied via antigen in summary, not by name in this stretch
- binding result [1]: binds

B2: TSAR1001 (antibody, V domains shown)
VH: EVQLVESGGGMVQPGESLRLSCAASGFDFTSYWMAWVRQAPGKGLEWVANMNADGSEKHYVDSVKGRFSISRDNAKKLLFLQMNSLTVDDTGVYYCARDEGRREGAWGQGTQVIVSA
VL: EIVLTQSPATLSFSPGDRATLSCRASQNINRFLAWYQQKPGQTPRLLIYDASTRATGIPARFSGSGSGTDFSLIISSLEPEDFAIYYCQQRNNWPITFGPGTKVDVK
notes: as for B1
- binding result [2]: binds

B3: TREC1003 (antibody, V domains shown)
VH: QVQLVQSGSEVKKPGASVRLACKTSGYTFSNYGVSWVRQGPGRGLEWLGWISGYNGRTHSADKFRDRVTLTTDTSTTTVYVDLKNLTSDDTAVYYCARVGTSHWYSDSWGQGTLVTVSS
VL: QSVLTQPPSVSGAPGQRVTISCAGSYSNIGAGYDVHWYRQLPGTAPTLLIYSNNNRPSGVSDRFSGSKSGTSASLAITGLQAEDEADYYCQSFDSSLSRSVFGTGTKVTVL
notes: as for B1
- binding result [3]: binds

B4: TSAR1006 (antibody, V domains shown)
VH: QVQLVQSGTEVKKPGASVKVSCKASGYRFTSNGISWVRQAPGQGLQWMGWISTDSGNTNYAQSFQGRVTLTRDTSTNTAYLELRRLRSEDTAVYYCARDKSWYFDYWGQGTLVSVSS
VL: SYELTQPPSVSVSPGQTARITCSGDALPKKYVFWYQQRSGQAPVLVIYEDSKRPSGIPDRFSGSSSGTLATLTISGAQVEDEADYYCYSTDTIGNWVFGGGTRLTVL
notes: as for B1
- binding result [4]: binds
- binding result [5]: binds

B5: TBRE1007 (antibody, V domains shown)
VH: QVQLQESGPGLVRPSETLSLTCDVSGYLISSGYYWGWVRQPPGKGLEWIGSVYHSGNAYYNPSLKGRVTMSVDTSKNQFSLKLTSVAAEDTAVYYCAREHRSGYQRYWGQGTLVTVSS
VL: IQMTQSPSSLSASVGDRVTITCRASQAIANSLAWYQQRPGKAPKLLIYAASSLESGVPSRFSGSGSGTDYTLTISSLQPEDFATYYCQQYYINPRTFGQGTKVEIKR
notes: VH/VL only
- binding result [6]: binds
- binding result [7]: binds

B6: TSTO1002 (antibody, V domains shown)
VH: EVQLVESGGGLVKPGGSLRLSCAASGFTFSNAWMNWVRQTPGKGLEWVGRIKTKTDGGTTDYAEPVKGRFTISRDDSKNTLYLQMNSLKTEDTAVYYCTRGAVADYWGQGTQVTVSS
VL: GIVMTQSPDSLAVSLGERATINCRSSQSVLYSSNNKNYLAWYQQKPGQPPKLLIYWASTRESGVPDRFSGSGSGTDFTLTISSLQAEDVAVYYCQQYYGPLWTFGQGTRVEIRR
notes: as for B1
- binding result [8]: binds

B7: TPRO1002 (antibody, V domains shown)
VH: EVQLVESGGGVIKPGGSLKLSCEGSGFTLDDYVMHWVRQAPGKGLEWISSISGDGTRTYYADSVKGRFTISRNNGKNSLYLQMDSLRREDTALYYCAKDARLAYYGMDVWGQGTTVTVSS
VL: QSALTQPASVSGSPGQSITISCTGTSSDIGGYDLVSWYQHHPGKAPKLVISEGSKRPSGVSNRFFGSKSGNTASLTISGLQAEDEADYYCCSFTGTSTFVFGTGTKVTVL
notes: as for B1
- binding result [9]: binds
- binding result [10]: binds
- binding result [11]: binds

B8: TSAR1003 (antibody, V domains shown)
VH: QLQLQESGPGLVKPSETLSLTCTVSGVSIGTSSYYWGWIRQPPAKGLEWIGSIYYSGSTYYNPSLKNRVTISVDTSKNHFSLKLSSVTAADTAVYYCARHRTGQYYYNSWGQGTLVTVSS
VL: SSELTQDPAVSVALGQTVRITCQGDSLRTDYATWYQQKPGQAPILVFYGEDNRPSGIPDRFSGSSSGNTASLTITGAQAEDEADYYCNSRDSSGHHWVFGGGTKLTVL
notes: as for B1
- binding result [12]: binds

B9: TSAR1005 (antibody, V domains shown)
VH: QVQLVESGGGVVQPGRSLRLSCVASGFTFSNYAMHWVRQAPGKGLEWVAVIWYDGSNEYYRDSVEGRFTISRDSSKNTLYLLVNSLRAEDTAVYYCARGNGPKSGKYSDFDYWGQGTLVTVSS
VL: DVVMTQSPLSLPVTLGQAASISCRSSQSLVYSDGNTYLNWFQQRPGQSPRRLIYKVSNRESGVPDRFSGSGSGTDFTLQISRVEAEDVGIYYCMQGAHWPPITFGQGTRLEIKR
notes: as for B1
- binding result [13]: binds
- binding result [14]: binds
- binding result [15]: binds
